In paper PMC11047111 (Proceedings of the National Academy of Sciences of the …, 2024):

How the values were obtained:
SEC = biological target: the molecule itself; experiment: SEC
[1] = biological target: CUL3^NTD (N-terminal domain of cullin 3, residues 1 to 381) (UniProt Q13618 1-381); experiment: BLI
CUL3^NTD (N-terminal domain of cullin 3, residues 1 to 381), sequence (Q13618 1-381): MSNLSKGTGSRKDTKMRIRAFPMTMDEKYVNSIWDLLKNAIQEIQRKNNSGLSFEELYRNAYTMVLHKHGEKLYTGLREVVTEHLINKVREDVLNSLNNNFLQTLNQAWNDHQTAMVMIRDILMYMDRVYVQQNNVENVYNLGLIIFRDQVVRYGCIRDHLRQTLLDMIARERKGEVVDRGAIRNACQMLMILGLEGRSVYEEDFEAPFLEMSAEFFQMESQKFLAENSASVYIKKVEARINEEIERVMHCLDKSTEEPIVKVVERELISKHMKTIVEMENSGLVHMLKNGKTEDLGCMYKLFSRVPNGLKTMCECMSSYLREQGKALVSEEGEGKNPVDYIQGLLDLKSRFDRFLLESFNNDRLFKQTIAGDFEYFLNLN

binding result [1] | Binder | stoichiometry N (SEC)
– | KCTD5 (natural protein) MAENHCELLSPARGGIGAGLGGGLCRRCSAGLGALAQRPGSVSKWVRLNVGGTYFLTTRQTLCRDPKSFLYRLCQADPDLDSDKDETGAYLIDRDPTYFGPVLNYLRHGKLVINKDLAEEGVLEEAEFYNITSLIKLVKDKIRERDSKTSQVPVKHVYRVLQCQEEELTQMVSTMSDGWKFEQLVSIGSSYNYGNEDQAEFLCVVSKELHNTPYGTASEPSEKAKILQERGSRM | 5
binds | KCTD5 L161R (natural protein) MAENHCELLSPARGGIGAGLGGGLCRRCSAGLGALAQRPGSVSKWVRLNVGGTYFLTTRQTLCRDPKSFLYRLCQADPDLDSDKDETGAYLIDRDPTYFGPVLNYLRHGKLVINKDLAEEGVLEEAEFYNITSLIKLVKDKIRERDSKTSQVPVKHVYRVRQCQEEELTQMVSTMSDGWKFEQLVSIGSSYNYGNEDQAEFLCVVSKELHNTPYGTASEPSEKAKILQERGSRM | –
